Test system: C4
Assay: C4 converting activity on Western blot of MBL/MASP preparation (C4b deposition from human serum)
Assay type: biochemical
Settings: blot incubated with human serum at 37° C., detection with anti-C4 antibody
Method: The C4 activating potentials of MASP-1 and MASP-2, and Clr and Cls, were compared. This was accomplished by separating a C1 preparation and an MBL/MASP preparation by SDS-PAGE followed by Western blotting. The blot was examined for C4 converting activity by incubation with human serum at 37° C., followed by detection of deposited C4b using anti-C4 antibodies.
C1 was purified by incubating IgG-coupled Sepharose beads with human serum at 4° C. The beads were washed and incubated at 37° C. for 30 minutes for activation of Clr and Cls. The beads were suspended in non-reducing sample buffer and, without boiling, subjected to SDS-PAGE, followed by blotting in the absence of SDS. A similar blot was made of an MBL preparation produced in the absence of enzyme inhibitors (The State Serum Institute, Copenhagen). Strips of the blots were incubated for 30 minutes at 37° C. with 1.10 (v/v) human MBL-deficient serum, depleted of Clq by fractionation on Biorex 70. The blots were developed with biotinylated F(ab)2 anti-C4 antibody followed by peroxidase-labelled streptavidin and luminescence reagent. Parallel blots were treated with a serine protease inhibitor (aminoethylbenzenesulfonyl fluoride), which was also present during incubation with serum. Other strips were directly developed with antibodies.

Row | Molecule | C4 deposition at the position of the band
1 | MASP-2: mannan-binding lectin associated serine protease-2, polypeptide of SEQ ID NO:2 (protein, listed as Homo sapiens) MRLLTLLGLLCGSVATPLGPKWPEPVFGRLASPGFPGEYANDQERRWTLTAPPGYRLRLYFTHFDLELSHLCEYDFVKLSSGAKVLATLCGQESTDTERAPGKDTFYSLGSSLDITFRSDYSNEKPFTGFEAFYAAEDIDECQVAPGEAPTCDHHCHNHLGGFYCSCRAGYVLHRNKRTCSALCSGQVFTQRSGELSSPEYPRPYPKLSSCTYSISLEEGFSVILDFVESFDVETHPETLCPYEFLKIQTDREEHGPFCGKTLPHRIETKSNTVTITFVTDESGDHTGWKIHYTSTAQPCPYPMAPPNGHVSPVQAKYILKDSFSIFCETGYELLQGHLPLKSFTAVCQKDGSWDRPMPACSIVDCGPPDDLPSGRVEYITGPGVTTYKAVIQYSCEETFYTMKVNDGKYVCEADGFWTSSKGEKSLPVCEPVCGLSARTTGGRIYGGQKAKPGDFPWQVLILGGTTAAGALLYDNWVLTAAHAVYEQKHDASALDIRMGTLKRLSPHYTQAWSEAVFIHEGYTHDAGFDNDIALIKLNNKVVINSNITPICLPRKEAESFMRTDDIGTASGWGLTQRGFLARNLMYVDIPIVDHQKCTAAYEKPPYPRGSVTANMLCAGLESGGKDSCRGDSGGALVFLDSETERWFVGGIVSWGSMNCGEAGQYGVYTKVINYIPWIENIISDF | C4 was deposited
2 | MASP-1: MBP-associated serine protease, similar in structure to Clr and Cls (protein) HTVELNNMFGQIQSPGYPDSYPSDSEVTWNITVPDGFRIKLYFMHFNLESSYLCEYDYVKVETEDQVLATFCGRETTDTEQTPGQEVVLSPGSFMSITFRSDFSNEERFTGFDAHYMAVDVDECKEREDEELSCDHYCHNYIGGYYCSCRFGYILHTDNRTCRVECSDNLFTQRTGVITSPDFPNPYPKSSECLYTIELEEGFMVNLQFEDIFDIEDHPEVPCPYDYIKIKVGPKVLGPFCGEKAPEPISTQSHSVLILFHSDNSGENRGWRLSYRAAGNEPELQPPVHGKIEPSQAKYFFKDQVLVSCDTGYKVLKDNVEMDTFQIECLKDGTWSNKIPTCKIVDCRAPGELEHGLITFSTRNNLTTYKSEIKYSCQEPYYKMLNNNTGIYTCSAQGVWMNKVLGRSLPTCLPVCGLPKFSRKLMARIFNGRPAQKGTTPWIAMLSHLNGQPFCGGSLLGSSWIVTAAHCLHQSLDPKDPTLRDSDLLSPSDFKIILGKHWRLRSDENEQHLGVKHTTLHPKYDPNTFENDVALVELLESPVLNAFVMPICLPEGPQQEGAMVIVSGWGKQFLQRFPETLMEIEIPIVDHSTCQKAYAPLKKKVTRDMICAGEKEGGKDACSGDSGGPMVTLNRERGQWYLVGTVSWGDDCGKKDRYGVYSYIHHNKDWIQRVTGVRN | no C4 deposition was observed
